Consider three molecules from PMC7210945, “The pivot point arginines identified in the β-pinwheel structure of C-terminal domain from Salmonella Typhi DNA Gyrase A subunit”.

One may read the stoichiometry N as the number of molecules, sites or subunits per partner or assembly. The Kd is the free concentration of one partner at which half of the binding sites on the other are occupied at equilibrium, for simple one-to-one binding.

Data set [1] has as its target Salmonella enterica serovar Typhi DNA Gyrase A C-terminal domain (StGyrA-CTD) (Salmonella enterica serovar Typhi (CT18 strain)). Kind of data set: SEC. A general note: SEC sorts molecules by how far they enter the pores of the column.
Data set [2] addresses StGyrA-CTD R667A R667A (Salmonella enterica serovar Typhi CT18) (UniProt A0A1U7FVV6). Nature of the data set: fluorescence binding.
The target in data set [3] is StGyrA-CTD R712A R712A (Salmonella enterica serovar Typhi CT18) (UniProt A0A1U7FVV6). Nature of the data set: fluorescence binding.
Data set [4] has as its target StGyrA-CTD R716A R716A (Salmonella enterica serovar Typhi CT18) (UniProt A0A1U7FVV6). Nature of the data set: fluorescence binding.
Data set [5] has as its target StGyrA-CTD R766A R766A (Salmonella enterica serovar Typhi CT18) (UniProt A0A1U7FVV6). Kind of data set: fluorescence binding.
For data set [6], the target named is StGyrA-CTD R817A R817A (Salmonella enterica serovar Typhi CT18) (UniProt A0A1U7FVV6). Kind of data set: fluorescence binding.
For the next data set, the target named is StGyrA-CTD D692A (Salmonella enterica serovar Typhi CT18, UniProt A0A1U7FVV6 530-840, D692A). Kind of data set: fluorescence binding; 1 mM Mg2+. The settings on record: protein: recombinant; tags: C-terminal 6xHis; blunt.
A further data set has as its target StGyrA-CTD wild type (Salmonella enterica serovar Typhi CT18, UniProt A0A1U7FVV6 530-840). Kind of data set: fluorescence binding; 1 mM Mg2+. The settings on record: protein: recombinant; tags: C-terminal 6xHis (pET-28a); chain copies: 2; blunt.
In a further data set the target is StGyrA-CTD R612A (Salmonella enterica serovar Typhi CT18, UniProt A0A1U7FVV6 530-840, R612A). Kind of data set: fluorescence binding; 1 mM Mg2+; text gives 220-250 nM for other mutants. The settings on record: protein: recombinant; tags: C-terminal 6xHis; blunt.

Turning to “Salmonella enterica serovar Typhi DNA Gyrase A C-terminal domain (StGyrA-CTD) (domain or fragment)”, the stoichiometry N in data set [1] was 2.

Take “TAAAGTCTAGAGACACGCATAGTCAATGACGGAGTTA (double strand) [FAM-37 bp DNA]”: the dissociation constant Kd in data set [2] came to 263 nM; in data set [3], 231 nM; in [4], 277 nM; in data set [5], 221 nM; in data set [6], 204 nM.

B1: FAM-37 bp DNA (dsDNA)
DNA 1: TAAAGTCTAGAGACACGCATAGTCAATGACGGAGTTA
DNA 2: TAACTCCGTCATTGACTATGCGTGTCTCTAGACTTTA
Regarding B1, the results for the equilibrium dissociation constant (Kd) with StGyrA-CTD D692A, with StGyrA-CTD wild type and with StGyrA-CTD R612A were 129 nM, 122 nM and 135 nM, respectively.
